Measurements published in US20240409663A1 (CONCEPT TO MEDICINE BIOTECH, published 2024).

Tests used:
human GPC3 on cells [1] = target: T1, human GPC3 on cells (human, UniProt P51654 25-554); assay: FACS, HEPG2 cells
T1 construct: whole, on cells; over-expressed on CHOK1 cells or endogenous on HEPG2, Hep3B and Huh-7 hepatocellular carcinoma cells; the cell line is named under assay; also called GPC3-CHOK1 cells; human GPC3 over-expressed CHOK1 cells
Procedure: (§1) To evaluate the antigen binding property, the humanized antibodies were analyzed for their binding to human GPC3 over-expressed CHOK1 cells, HEPG2 cells, Hep3B cells and Huh-7 cells by FACS. Briefly, GPC3-CHOK1 cells, HEPG2 cells, Hep3B cells and Huh-7 cells were firstly incubated with Fc blocking reagent at 4° C. for 15 mins. Cells were washed by FACS buffer and divided to each well with 4-fold serially diluted humanized antibodies starting at 10 μg/mL at 4° C. for 60 mins. Cells were washed by FACS buffer and fixed with 2% PFA at RT for 15 mins. […] The 16 humanized antibodies were separated into two plates.

human GPC3 on cells [2] = target: T1, human GPC3 on cells; assay: FACS, GPC3-CHOK1 cells
Procedure: as §1

human GPC3 on cells [3] = target: T1, human GPC3 on cells; assay: FACS, Huh-7 cells
Procedure: as §1

[4] = target: T2, human GPC3-his tag protein (human, UniProt P51654 25-559, limits assumed); assay: SPR Biacore 8K, mAb captured, affinity ranking
T2 construct: recombinant soluble antigen used as analyte in all Biacore runs; also called recombinant GPC3 protein; rhGPC3-His; not shown: His tag
Procedure: To evaluate antigen binding activity, the chimeric antibody's affinity was measured by Biacore 8K. A serial dilution of human GPC3-his tag protein was injected over captured chimeric antibody 52H5D3B8-6 #-VH+VL for 3 mins at a flow rate of 30 μl/min. The antigen was allowed to dissociate for 720 s. Among the multi detection doses, two concentrations with most close affinity to the chimeric antibody's affinity were chosen for the 16 humanized antibodies' affinity detection.

human GPC3 on cells [5] = target: T1, human GPC3 on cells; assay: FACS, Hep3B cells
Procedure: as §1

[6] = target: T2, human GPC3-his tag protein; assay: SPR Biacore, mAb captured on CM5, GPC3-his dilution series (full kinetics)
Procedure: The binding of the humanized antibodies to recombinant GPC3 protein (human GPC3-his tag) was tested by Biacore using a capture method. 52H5D3B8-6 #-V+VL, 52H5D3B8-6 #-VH1+VL1, 52H5D3B8-6 #-VH1+VL3, 52H5D3B8-6 #-V1+VL4, 52H5D3B8-6 #-VH2+VL4, 52H5D3B8-6 #-VH3+VL1, 52H5D3B8-6 #-VH3+VL3 mAbs were captured using CM5 sensor chip. A serial dilution of human GPC3-his tag protein was injected over captured antibody for 2 mins at a flow rate of […]. The antigen was allowed to dissociate for 360 s. All the experiments were carried out on a Biacore T200.

Binder	EC50 (human GPC3 on cells [1]) [µg/mL]	EC50 (human GPC3 on cells [2]) [µg/mL]	EC50 (human GPC3 on cells [3]) [µg/mL]	Kd [4] [nM]	koff [4] [s⁻¹]	kon [4] [M⁻¹ s⁻¹]	EC50 (human GPC3 on cells [5]) [µg/mL]	Kd [6] [nM]	koff [6] [s⁻¹]	kon [6] [M⁻¹ s⁻¹]
52H5D3B8-6#-VH2+VL1 (antibody, V domains shown, humanized) VH: QVQLVQSGAEVKKPGASVKVSCKASGYTFTDYEMHWVRQAPGQGLEWIGAIHPGSGGTAYNQKFKGRVTMTADTSTSTVYMELSSLRSEDTAVYYCTRYYSYAYWGQGTLVTVSS VL: DIVMTQTPLSLSVTPGQPASISCRSSQSLVHSNGNTYLQWYLQKPGQSPQLLIYKVSNRFSGVPDRFSGSGSGTDFTLKISRVEAEDVGVYYCFQSIHVPYTFGGGTKLEIK	0.0479	0.0384	0.0427	1.15	0.000742	646000	0.0824			
52H5D3B8-6#-VH2+VL2 (antibody, V domains shown, humanized) VH: QVQLVQSGAEVKKPGASVKVSCKASGYTFTDYEMHWVRQAPGQGLEWIGAIHPGSGGTAYNQKFKGRVTMTADTSTSTVYMELSSLRSEDTAVYYCTRYYSYAYWGQGTLVTVSS VL: DIVMTQTPLSLSVTPGQPASISCRSSQSLVHSNGNTYLQWYLQKPGQSPQLLIYKVSNRFSGVPDRFSGSGSGTDFTLKISRVEAEDVGVYFCFQSIHVPYTFGGGTKLEIK	0.0481	0.043	0.0434	1.15	0.000749	651000	0.0846			
52H5D3B8-6#-VH1+VL4 (antibody, V domains shown, humanized) VH: QVQLVQSGAEVKKPGASVKVSCKASGYTFTDYEMHWVRQAPGQGLEWMGAIHPGSGGTAYNQKFKGRVTMTRDTSTSTVYMELSSLRSEDTAVYYCARYYSYAYWGQGTLVTVSS VL: DIVMTQTPLSLSVTPGQPASISCRSSQSLVHSNGNTYLQWYLQKPGQSPKLLIYKVSNRFSGVPDRFSGSGSGTDFTLKISRVEAEDVGVYFCFQSIHVPYTFGGGTKLEIK	0.0391	0.0308	0.0268	1.74	0.000947	546000	0.0545	1.85	0.000984	532000

The remaining binders from weak to strong by Kd [4], led by results:

EC50 (human GPC3 on cells [1]) [µg/mL]	EC50 (human GPC3 on cells [2]) [µg/mL]	EC50 (human GPC3 on cells [3]) [µg/mL]	Kd [4] [nM]	koff [4] [s⁻¹]	kon [4] [M⁻¹ s⁻¹]	EC50 (human GPC3 on cells [5]) [µg/mL]	Kd [6] [nM]	koff [6] [s⁻¹]	kon [6] [M⁻¹ s⁻¹]	Binder
0.0387	0.0341	0.0265	1.74	0.000975	561000	0.0529	1.76	0.000872	494000	52H5D3B8-6#-VH1+VL3 (antibody, V domains shown, humanized) VH: QVQLVQSGAEVKKPGASVKVSCKASGYTFTDYEMHWVRQAPGQGLEWMGAIHPGSGGTAYNQKFKGRVTMTRDTSTSTVYMELSSLRSEDTAVYYCARYYSYAYWGQGTLVTVSS VL: DIVMTQTPLSLSVTPGQPASISCRSSQSLVHSNGNTYLQWYLQKPGQSPKLLIYKVSNRFSGVPDRFSGSGSGTDFTLKISRVEAEDVGVYYCFQSIHVPYTFGGGTKLEIK
0.0438	0.041	0.0381	0.994	0.000645	648000	0.0632	1.12	0.000669	599000	52H5D3B8-6#-VH2+VL4 (antibody, V domains shown, humanized) VH: QVQLVQSGAEVKKPGASVKVSCKASGYTFTDYEMHWVRQAPGQGLEWIGAIHPGSGGTAYNQKFKGRVTMTADTSTSTVYMELSSLRSEDTAVYYCTRYYSYAYWGQGTLVTVSS VL: DIVMTQTPLSLSVTPGQPASISCRSSQSLVHSNGNTYLQWYLQKPGQSPKLLIYKVSNRFSGVPDRFSGSGSGTDFTLKISRVEAEDVGVYFCFQSIHVPYTFGGGTKLEIK
0.0471	0.0373	0.0413	0.838	0.000578	689000	0.0738	1	0.000579	579000	52H5D3B8-6#-VH3+VL1 (antibody, V domains shown, humanized) VH: QVQLVQSGAEVKKPGASVKVSCKALGYTFTDYEMHWVKQAPGQGLEWIGAIHPGSGGTAYNQKFKGRVTLTADTSTSTVYMELSSLRSEDTAVYYCTRYYSYAYWGQGTLVTVSS VL: DIVMTQTPLSLSVTPGQPASISCRSSQSLVHSNGNTYLQWYLQKPGQSPQLLIYKVSNRFSGVPDRFSGSGSGTDFTLKISRVEAEDVGVYYCFQSIHVPYTFGGGTKLEIK
